In PMC9040152:

How the values were obtained:
[1] = target: E5-tagged Fcγ receptor IIIa, V158 variant (human); test: SPR
[2] = target: E5-tagged FcγRIIIa V158, produced in CHO cells (human); test: SPR
Chain of E5-tagged FcγRIIIa V158, produced in CHO cells (human) (P08637 17-208): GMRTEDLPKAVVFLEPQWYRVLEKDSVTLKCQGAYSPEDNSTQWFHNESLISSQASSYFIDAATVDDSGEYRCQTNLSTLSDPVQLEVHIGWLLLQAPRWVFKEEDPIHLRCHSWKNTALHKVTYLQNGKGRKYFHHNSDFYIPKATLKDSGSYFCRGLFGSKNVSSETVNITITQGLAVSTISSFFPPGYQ

Chain of E5-tagged Fcγ receptor IIIa, V158 variant (human) (P08637 17-208, change not shown): as the sequence (P08637 17-208) above

Row | fold increase in affinity upon digalactosylation, relative to TZM [1] [fold] | Kd [2] [nM] | Substance
1 | 2 | – | Trastuzumab co-expressed with β1,4-galactosyltransferase 1 (TZM GT) (antibody)
2 | – | 32 | Trastuzumab co-expressed with β4GT1 and RMD, in vitro α2,6-sialylated (antibody)
